The assay addresses trimeric gp140 clade A HIV-1 92/UG/037 (HIV-1 clade A strain 92/UG/037). Put plainly: SPR.

GNA (natural protein) returned a Kd of 7.2 nM.

The values are drawn from article PMC7261407.
